# Laboratory results as given in US5989804, “E6 binding proteins” (New England Medical Center Hospitals, Inc., dated 1999).
# Molecular target: in vitro-translated 35S-labeled HPV16 E6 (human papillomavirus type 16, UniProt P03126, 35S-labeled cysteine or methionine)
# Test: GST pull-down of 35S-labeled in vitro-translated HPV-16 E6
binder,measurement,value
ILVEKDRFVNDYDKDNDGRLDPQELLPWVVPNNQGI (other) [GSTSD7EF5],binding result,no binding
